Measurements: US20250361297A1, “ANTI- SIGLEC-15 BINDING MOLECULES AND METHODS OF USE” (ADAPTAM THERAPEUTICS, S.L., priority 2024, published 2025)
“Also recorded” adds a separate entry of the source.

System: truncated second domain (D2) of Siglec-15
Assay: Flow cytometry binding to HEK 293T cells expressing only the truncated second domain (D2) of Siglec-15
Design: species or system human
Settings: HEK 293T cells expressing only truncated D2; flow cytometry (FIG. 2B, FIG. 17)
Source text: Flow cytometry was used to interrogate the binding of anti-Siglec-15 monoclonal antibodies to cells expressing only a truncated version of Siglec-15 comprising solely of the second domain (D2). This strategy was useful to identify clones that recognize epitopes outside of the canonical sialic acid binding site located in the first domain (D1).
For the ELISA, antigens were immobilized on high-binding plates, and the full-length IgG1 anti-Siglec-15 antibodies were titrated beginning at a concentration of 10 μg/ml. After washing, an anti-human IgG Fab-specific HRP-conjugated secondary antibody was applied for detection. Palivizumab was included as the negative control. Optical densities were measured to generate binding curves from which EC50 values were derived. […] Flow cytometric analysis was conducted, and fluorescence intensity was used to calculate EC50 values, providing a quantitative assessment of the antibodies' cell surface binding efficacy. […] Antibodies were titrated starting at a concentration of 10 μg/ml and detected with an anti-human Fc-specific secondary antibody to detect bound primary antibodies. The half-maximal effective concentration (EC50) was calculated for each antibody to determine its binding affinity to mouse Siglec-15. Results were analyzed and ranked based on the EC50 values. […]

truncated second domain (D2) of Siglec-15, sequence (Q6ZMC9 168-251 limits assumed): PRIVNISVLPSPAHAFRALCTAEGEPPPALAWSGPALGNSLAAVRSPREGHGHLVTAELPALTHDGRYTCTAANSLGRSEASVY

B1: S15B1: parental mouse anti-Siglec-15 monoclonal antibody from hybridoma; VH SEQ ID NO: 18, VL SEQ ID NO: 19 (antibody, V domains shown)
VH: QVQLQQSGPELVKPGASVKISCKASGYAFSSSWMNWVKQRPGKGLEWIGRIYPGHGETNYNGKFKDKATVTADKSSSTTYMQLSSLTSEDSAVYFCARVDNSDPYYFDYWGQGTTLTVSS
VL: DIVLTQSPASLAVSLGQRATISCRASKSVSTSGYSYMHWYQQKPGQPPKLLIYLASNLESGVPARFSGSGSGTDFTLNIHPVEEEDAATYYCQHGRELPFTFGSGTKLEIK
modifications: Clone S15B1 VH; Clone S15B1 VL
binding to D2 of Siglec-15: displayed binding affinity for D2; also recorded: significant binding to D2
